Measurements published in patent publication US12202887B2, “Eradication of bacterial biofilm using anti-amyloid monoclonal antibodies” (priority 2018, dated 2025).
Read-outs that look alike come from different tables or passages of the source.

Key:
[1] = system: S. Typhimurium biofilm; assay: S. Typhimurium biofilms with or without ALZ.3H3, then ampicillin or DNase for 24 hours, Syto9 imaging; assay type: cell-based; settings: for Overall biofilm appearance: wildtype biofilms treated alone for 24 hours after biofilm establishment
Description: Biofilms enhance the recalcitrance of bacteria to antibiotics (Keren et al., 2004, FEMS Microbiol Lett, 230(1):13-8, Brown et al., 1988, J Antimicrob Chemother, 22(6):777-80, Stewart, 2002, Int J Med Microbiol, 292(2):107-13). To enhance the clearance of bacterial biofilms, the structure of the biofilm was altered by employing ALZ.3H3 and then the biofilm was subjected to antibiotics to kill the bacteria within the disperse biofilm. […] an additional integral component of S. Typhimurium biofilms, wildtype or ALZ.3H3 incubated biofilms were exposed to X DNase treatment for an additional 24 hours. Biofilms were then stained with Syto9 and visualized using CSML. Excessive washing steps were avoided in aims to examine the architecture of the biofilms.

[2] = system: S. Typhimurium biofilm; assay: S. Typhimurium biofilms established in presence of mAb, Syto9 stain, CSLM, ImageJ particle count, supernatant plating; assay type: cell-based; settings: 0.5 mg/ml
Method: After growth, biofilms were stained with Syto9 and imaged using CSLM. Three dimensional architecture was examined by creating 3D surface plots using ImageJ. […] To quantify the disperse biofilm created by treatment with ALZ.3H3, through the use of ImageJ all particles above the thickness of a wild-type S. Typhimurium ([…]) was used to set the threshold value, and these threshold parameters were applied to subsequent treatments (FIG. 1B). […] The bacteria recovered from the supernatants is representative of the loose disperse biofilm matrix that is easily dissociated from the biomass.

[3] = system: pre-established S. Typhimurium biofilms; assay: mAb added to pre-established S. Typhimurium biofilms, CSLM and particle count; assay type: cell-based
Method: To determine if ALZ.3H3 can reduce biofilm formation of pre-established biofilms of S. Typhimurium, 0.5 mg/ml of ALZ.3H3 was added for an additional 24 hours to a 24 hour pre-established biofilm of S. Typhimurium, or 0.5 mg/ml of ALZ.3H3 was added for 24 hours to a 48 hour pre-established biofilms. These biofilms were then compared, respectively, to a 48 and 72 hour S. Typhimurium biofilm that was not exposed to ALZ.3H3 (FIG. 2A). Biofilms were stained with Syto9 and imaged using CSML. Biofilms were not wash extensively in order determine the impact of ALZ.3H3 on biofilm architecture. […] Using the thresholding technique described earlier, the number of particles above the thickness of the wild-type S. Typhimurium were counted.

[4] = system: Histadine tagged CsgA (His-CsgA), curli; assay: Thioflavin T (ThT) fibrillization assay of His-CsgA; assay type: biochemical
Method: The formation of monomers into mature curli fibrils can be monitored by incubation with Thioflavin T (ThT). Fluorescence of ThT increases as it binds to amyloid fibril, allowing the amyloid formation process to be measured spectroscopically. The formation of amyloid fibers can be defined by a three stage sigmoidal curve (Dueholm et al., 2011, Biochemistry, 50(39):8281-90; Wang et al., 2007, J Biol Chem, 282(6):3713-9). In the first stage, monomeric subunits are slow to self-associate and ThT fluorescence is minimal (Naiki et al., 1991, Lab Invest, 65(1):104-10). The reaction exponential increases as monomeric seeds oligomerize and continue to elongate (Naiki et al., 1991, Lab Invest, 65(1):104-10). This process is marked by a rapid increase in ThT fluorescence (Naiki et al., 1991, Lab Invest, 65(1):104-10). The oligomers elongate into mature fibrils and Tht fluorescence peaks (Dueholm et al., 2011, Biochemistry, 50(39):8281-90; Wang et al., 2007, J Biol Chem, 282(6):3713-9). […] Histadine tagged CsgA (His-CsgA), which will naturally self-associate and fibrillize, was incubated with 0.5 mg/ml ALZ.3H3 and the fibrillization reaction was monitored using ThT. As controls synthetic peptides CsgAR4-5 and CsgAR4-5N122A were incubated with Tht and the fribrillization reaction was monitored in parallel. […]

[5] = system: tau paired helical filaments (TAU PHF) isolated from AD brain homogenates; assay: SPR binding to tau paired helical filaments; settings: antibody concentration 66.7 nM
Method: FIG. 14 depicts a surface plasma resonance (SPR) analysis for binding to aggregated islet amyloid peptide IAPP and tau paired helical filaments (TAU PHF) isolated from AD brain homogenates. The antibody concentrations used in this study were 110 nM for the IAPP and 66.7 nM for the Tau-PHF.
Human mAbs were assayed by SPR for binding to aggregated islet amyloid peptide IAPP and tau paired helical filaments (TAU PHF) isolated from AD brain homogenates (FIG. 14). The antibody concentrations used in this study were 110 nM for the IAPP and 66.7 nM for the Tau-PHF.

[6] = system: E. coli UTI89 biofilm; assay: Colony forming units per biofilm on glass coverslips, E. coli UTI89
Method: (§1) Biofilms of S. Typhimurium (STM) or E. coli UTI89 grown in the absence or presence of 3H3 (250 ug/ml, 125 ug/ml, 50 ug/ml, 25 ug/ml, 10 ug/ml, 1 ug/ml) as well as grown with 0.5 mg/ml control A6 antibody on top of sterile glass coverslips for 72 hours at 26 C in a sterile 24 well dish. S. Typhimurium curli mutant (csgBA) and UTI89 curli mutant (csgBA) were also grown as a negative controls. In select conditions, biofilms were incubated for an additional 24 hours at 26 C with 30 ug/ml Ampicillin (Amp). The sterile glass coverslip, which was used as a surface for the biofilm to grow upon, was placed in a sterile 15 ml conical tube that contained 3 ml of sterile PBS. The biofilm was sonicated for 10 seconds at a setting of 4 using a ThermoFisher Sonic Dismembrator. Bacteria were enumerated by serial diluting 1:10 in sterile PBS and spot plating on agar plates.
(§2) Biofilms of S. Typhimurium (STM) or E. coli UTI89 grown in the absence or presence of 3H3 (250 ug/ml, 125 ug/ml, 50 ug/ml, 25 ug/ml, 10 ug/ml, 1 ug/ml) as well as grown with 0.5 mg/ml control A6 antibody on top of sterile glass coverslips for 72 hours at 26 C in a sterile 24 well dish. S. Typhimurium curli mutant (csgBA) and UTI89 curli mutant (csgBA) were also grown as a negative controls. In select conditions, biofilms were incubated for an additional 24 hours at 26 C with 30 ug/ml Ampicillin (Amp). […]

[7] = system: S. Typhimurium (STM) biofilm; assay: Colony forming units per biofilm on glass coverslips, S. Typhimurium
Method: as §1, §2

[8] = system: S. Typhimurium biofilm on medical grade catheters; assay: In vitro catheter assay: Salmonella biofilms grown on sterile i.v. catheters, GFP and Congo red; settings: 0.5 mg/ml for 72 hours
Method: (§3) Salmonella biofilms were grown alone or in the presence of ALZ3H3 antibody upon sterile i.v. catheters. Bacteria were labeled green using GFP. Congo red was used to stain for curli amyloid fibrils. […] To investigate the combination effect of ALZ3H3 and ampicillin on biofilm growth, mice were given 1 mg/ml Ampicillin in the drinking water 24 hours prior to catheter insertion. Sterile i.v. catheters were incubated for 24 hours with Salmonella typhimurium prior to insertion into the back flanks of Balb/C mice. 24 and 28 hours after catheter insertion 100 ug of ALZ3H3 was percutaneously inserted into the lumen of the catheter. 72 hours after catheter insertion, mice were euthanized and the catheters were removed. Bacteria were labeled green using GFP. Congo red was used to stain for curli amyloid fibrils. Catheters autofluoresced green.

[9] = system: Salmonella typhimurium catheter biofilm; assay: In vivo catheter assay: Salmonella typhimurium colonized catheters inserted into back flanks of mice
Method: as §3

[10] = target: T1, Aβ42 conformers (Homo sapiens, UniProt P05067); assay: MAb binding to Aβ42 conformers by surface plasma resonance (SPR)
T1 construct: Amyloid beta derived diffusible ligands (ADDLs), also known as globulomers, produced from Aβ42
Method: MAb binding to Aβ42 conformers was measured by surface plasma resonance (SPR) (Table 1). Calculated affinity constants (KD) were obtained using Qdat software. […] The 3H3 binding data is qualitatively most similar to the 4G1 and 6E10 mAbs.

T1 sequence (P05067 672-713 limits assumed): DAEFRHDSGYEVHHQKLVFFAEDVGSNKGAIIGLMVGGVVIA
Chain of tau paired helical filaments (TAU PHF) isolated from AD brain homogenates (P10636 623-695 limits assumed): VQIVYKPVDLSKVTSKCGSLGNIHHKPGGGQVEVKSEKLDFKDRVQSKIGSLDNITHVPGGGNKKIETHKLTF

Molecule: CC1(C)S[C@@H]2[C@H](NC(=O)[C@H](N)c3ccccc3)C(=O)N2[C@H]1C(=O)O [ampicillin]
- Overall biofilm appearance [1]: no alteration in overall biofilm appearance

Molecule: DNase
- Overall biofilm appearance [1]: no alteration in overall biofilm appearance

B1: ALZ.3H3: human monoclonal antibody with pan-amyloid binding activity; heavy chain SEQ ID NO:2, light chain SEQ ID NO:35 (antibody)
VH: MEFGLSWVFLVALLRGVQCQVQLVESGGGVVQPGRSLRLSCAASGFSFSTYGMHWVRQAPGKGLEWVAVISYDGSRKYYADTGKGRFTISRDNSKNTLYLEMNGLRAEDTAVYHCAKDLRRELGFGNRDYHYYGMDAWGQGTTVTVSSASTK
light: LTQPRSVSGSPGQSVTMSCTGTNSDIGGYNYVSWYQQHPGKAPKLMIYDVYKRPSGVPDRFSGSKSGNTASLTISGLQAEDEADYYCCSYAGTNNLIFGGGTKLTVLGQPKAAPSVTLFPPSSEELQANKATLVCLISDFYPGAVTVAWKADSSPVKAGVETTTPSKQSNNKYAASSYLSLTPEQWKSHRSYSCQV
modifications: Chemically Synthesized, ALZ.3H3 Heavy Chain; Chemically Synthesized, ALZ.3H3 Light Chain
- Number of particles above the thickness of wild-type biofilm (20 μM) ([2]; 72 hours at 28° C.): significant increase in number of particles
- Biofilm architecture ([2]; 72 hours at 28° C., 3D surface plots): altered the architecture of biofilm forming a disperse biofilm topography
- Bacteria recovered from biofilm supernatant ([2]; plating supernatants): significantly more bacteria was recovered
- Number of particles above the thickness of wild-type biofilm ([3]; 24 hour pre-established biofilm + 0.5 mg/ml for 24 hours): increased the number of particles
- Biofilm matrix architecture ([3]; 24 hour pre-established biofilm + 0.5 mg/ml for additional 24 hours, vs 48 hour biofilm): began to exhibit a more disperse matrix
- Number of particles above the thickness of wild-type biofilm ([3]; 48 hour pre-established biofilm + 0.5 mg/ml for 24 hours): the number of particles increased as well
- Biofilm matrix architecture ([3]; 48 hour pre-established biofilm + 0.5 mg/ml for additional 24 hours, vs 72 hour biofilm): the biofilm matrix was more disperse
- Lag time (t0) for His-CsgA to self-associate and oligomerize ([4]; 0.5 mg/ml antibody, compared to synthetic peptide CsgAR4-5): significant increase in the lag times
- ThT relative fluorescence units (fibril formation) ([4]; His-CsgA with 0.5 mg/ml antibody): significant reduction in the relative fluorescence units
- Biofilm mass ([1]; 0.5 mg/ml ALZ.3H3 during growth, then antibiotic treatment (ampicillin) for additional 24 hours): significant reduction in the biofilm mass to the levels below detection
- Binding to Tau PHF [5]: notable for binding to Tau PHF
- CFU/biofilm ([6]; UTI89 grown with 3H3 (1-250 ug/ml), 72 hours at 26 C): reduction of CFU/biofilm
- CFU/biofilm ([6]; UTI89 grown with 3H3, then 30 ug/ml Ampicillin for additional 24 hours): additional reduction in CFU/biofilm
- CFU/biofilm ([7]; STM grown with 3H3 (1-250 ug/ml), 72 hours at 26 C): reduction of CFU/biofilm
- CFU/biofilm ([7]; STM grown with 3H3, then 30 ug/ml Ampicillin for additional 24 hours): additional reduction in CFU/biofilm
- Catheter biofilm morphology [8]: the biofilm was dispersed
- Congo red staining (curli fibers) [8]: no significant staining with Congo red
- Catheter biofilm morphology and curli ([9]; 100 ug percutaneously into catheter lumen, catheters removed at 72 hours): disperse morphology with little curli
- Amyloid incorporation in catheter biofilm ([9]; combination: 100 ug ALZ3H3 into lumen + 1 mg/ml ampicillin in drinking water): little to no amyloid incorporation

B2: 4A6: human anti-amyloid mAb cloned from B cells of an Alzheimer's patient; heavy chain SEQ ID NO:57, light chain SEQ ID NO:59 (antibody, V domains shown)
VH: QVQLVQSGAEVKKPGASMRVSCKASGYTYTAYYIHWMRQAPGQGLEWMGWINPHIGSTNYAEKFRGRVTLTRDTSIKTAYMDLDRLTSDDTAIYYCARVRAPRSISGTLNSYGMDVWGQGTTVAVSS
VL: DIVMTQSPSSLSASVGDRVVITCRASLRIGTFLNWYQQTQGRAPKLLVSSASTLQSGVPSRFSGSGSGTDFTLTINSLQPEDFATYYCQQSYSTTWTFGQGTKVELK
modifications: Chemically Synthesized, ALZ.4A6 Heavy Chain; Chemically Synthesized, ALZ.4A6 Light Chain
- Binding preference among Aβ42 conformers [10]: preferentially bind Aβ fibrils
- Kd ([10]; C-terminal biotinylated ADDLs/globulomers, read-out: Calculated affinity constant (KD), CTB oligo): > 2 µM
- Kd ([10]; N-terminal biotinylated monomers, read-out: Calculated affinity constant (KD), NTB mono): > 2 µM

B3: 4G1: human anti-amyloid mAb cloned from B cells of an Alzheimer's patient; heavy chain SEQ ID NO:61, light chain SEQ ID NO:63 (antibody, V domains shown)
VH: EEHLVESGGALVQPGGSLRLSCEASGFTFRSYWMTWVRQAPGKGLEWLANIKQDGSDYYYVDSVKGRFTISRDNAKNTLYLQMNNLRADDTAVYFCARDARYRDTTWPQYYFYYFMDVWGKGTTVTVSS
VL: DIQLTQSPSSLSASIGDRVTVTCRASQSISNYLNWYQQKPGKAPKLLIYAASNLHTGVPSRFSGSGSGTHFTLTISSLQPEDFATYYCQLSYNNPRTFGPGTTVDIR
modifications: Chemically Synthesized, ALZ.4G1 Heavy Chain; Chemically Synthesized, ALZ.4G1 Light Chain
- Binding to Tau PHF [5]: notable for binding to Tau PHF
